Test results from US20150017651A1 (University of Texas, published 2015).

Target: mTOR (human, UniProt P42345 1-2549)
Assay: IP-Western, BE3 or SKGT4 cells

Row | binding result | Binder
1 | no binding | Gli2 (other) METSASATASEKQEAKSGILEAAGFPDPGKKASPLVVAAAAAAAVAAQGVPQHLLPPFHAPLPIDMRHQEGRYHYEPHSVHGVHGPPALSGSPVISDISLIRLSPHPAGPGESPFNAPHPYVNPHMEHYLRSVHSSPTLSMISAARGLSPADVAQEHLKERGLFGLPAPGTTPSDYYHQMTLVAGHPAPYGDLLMQSGGAASAPHLHDYLNPVDVSRFSSPRVTPRLSRKRALSISPLSDASLDLQRMIRTSPNSLVAYINNSRSSSAASGSYGHLSAGALSPAFTFPHPINPVAYQQILSQQRGLGSAFGHTPPLIQPSPTFLAQQPMALTSINATPTQLSSSSNCLSDTNQNKQSSESAVSSTVNPVAIHKRSKVKTEPEGLRPASPLALTQGQVSGHGSCGCALPLSQEQLADLKEDLDRDDCKQEAEVVIYETNCHWEDCTKEYDTQEQLVHHINNEHIHGEKKEFVCRWQACTREQKPFKAQYMLVVHMRRHTGEKPHKCTFEGCSKAYSRLENLKTHLRSHTGEKPYVCEHEGCNKAFSNASDRAKHQNRTHSNEKPYICKIPGCTKRYTDPSSLRKHVKTVHGPDAHVTKKQRNDVHLRTPLLKENGDSEAGTEPGGPESTEASSTSQAVEDCLHVRAIKTESSGLCQSSPGAQSSCSSEPSPLGSAPNNDSGVEMPGTGPGSLGDLTALDDTPPGADTSALAAPSAGGLQLRKHMTTMHRFEQLKKEKLKSLKDSCSWAGPTPHTRNTKLPPLPGSGSILENFSGSGGGGPAGLLPNPRLSELSASEVTMLSQLQERRDSSTSTVSSAYTVSRRSSGISPYFSSRRSSEASPLGAGRPHNASSADSYDPISTDASRRSSEASQCSGGSGLLNLTPAQQYSLRAKYAAATGGPPPTPLPGLERMSLRTRLALLDAPERTLPAGCPRPLGPRRGSDGPTYGHGHAGAAPAFPHEAPGGGARRASDPVRRPDALSLPRVQRFHSTHNVNPGPLPPCADRRGLRLQSHPSTDGGLARGAYSPRPPSISENVAMEAVAAGVDGAGPEADLGLPEDDLVLPDDVVQYIKAHASGALDEGTGQVYPTESTGFSDNPRLPSPGLHGQRRMVAADSNVGPSAPMLGGCQLGFGAPSSLNKNNMPVQWNEVSSGTVDALASQVKPPPFPQGNLAVVQQKPAFGQYPGYSPQGLQASPGGLDSTQPHLQPRSGAPSQGIPRVNYMQQLRQPVAGSQCPGMTTTMSPHACYGQVHPQLSPSTISGALNQFPQSCSNMPAKPGHLGHPQQTEVAPDPTTMGNRHRELGVPDSALAGVPPPHPVQSYPQQSHHLAASMSQEGYHQVPSLLPARQPGFMEPQTGPMGVATAGFGLVQPRPPLEPSPTGRHRGVRAVQQQLAYARATGHAMAAMPSSQETAEAVPKGAMGNMGSVPPQPPPQDAGGAPDHSMLYYYGQIHMYEQDGGLENLGSCQVMRSQPPQPQACQDSIQPQPLPSPGVNQVSSTVDSQLLEAPQIDFDAIMDDGDHSSLFSGALSPSLLHSLSQNSSRLTTPRNSLTLPSIPAGISNMAVGDMSSMLTSLAEESKFLNMMT
2 | no binding | Gli3 (other) MEAQSHSSTTTEKKKVENSIVKCSTRTDVSEKAVASSTTSNEDESPGQTYHRERRNAITMQPQNVQGLSKVSEEPSTSSDERASLIKKEIHGSLPHVAEPSVPYRGTVFAMDPRNGYMEPHYHPPHLFPAFHPPVPIDARHHEGRYHYDPSPIPPLHMTSALSSSPTYPDLPFIRISPHRNPTAASESPFSPPHPYINPYMDYIRSLHSSPSLSMISATRGLSPTDAPHAGVSPAEYYHQMALLTGQRSPYADIIPSAATAGTGAIHMEYLHAMDSTRFSSPRLSARPSRKRTLSISPLSDHSFDLQTMIRTSPNSLVTILNNSRSSSSASGSYGHLSASAISPALSFTYSSAPVSLHMHQQILSRQQSLGSAFGHSPPLIHPAPTFPTQRPIPGIPTVLNPVQVSSGPSESSQNKPTSESAVSSTGDPMHNKRSKIKPDEDLPSPGARGQQEQPEGTTLVKEEGDKDESKQEPEVIYETNCHWEGCAREFDTQEQLVHHINNDHIHGEKKEFVCRWLDCSREQKPFKAQYMLVVHMRRHTGEKPHKCTFEGCTKAYSRLENLKTHLRSHTGEKPYVCEHEGCNKAFSNASDRAKHQNRTHSNEKPYVCKIPGCTKRYTDPSSLRKHVKTVHGPEAHVTKKQRGDIHPRPPPPRDSGSHSQSRSPGRPTQGALGEQQDLSNTTSKREECLQVKTVKAEKPMTSQPSPGGQSSCSSQQSPISNYSNSGLELPLTDGGSIGDLSAIDETPIMDSTISTATTALALQARRNPAGTKWMEHVKLERLKQVNGMFPRLNPILPPKAPAVSPLIGNGTQSNNTCSLGGPMTLLPGRSDLSGVDVTMLNMLNRRDSSASTISSAYLSSRRSSGISPCFSSRRSSEASQAEGRPQNVSVADSYDPISTDASRRSSEASQSDGLPSLLSLTPAQQYRLKAKYAAATGGPPPTPLPNMERMSLKTRLALLGDALEPGVALPPVHAPRRCSDGGAHGYGRRHLQPHDAPGHGVRRASDPVRTGSEGLALPRVPRFSSLSSCNPPAMATSAEKRSLVLQNYTRPEGGQSRNFHSSPCPPSITENVTLESLTMDADANLNDEDFLPDDVVQYLNSQNQAGYEQHFPSALPDDSKVPHGPGDFDAPGLPDSHAGQQFHALEQPCPEGSKTDLPIQWNEVSSGSADLSSSKLKCGPRPAVPQTRAFGFCNGMVVHPQNPLRSGPAGGYQTLGENSNPYGGPEHLMLHNSPGSGTSGNAFHEQPCKAPQYGNCLNRQPVAPGALDGACGAGIQASKLKSTPMQGSGGQLNFGLPVAPNESAGSMVNGMQNQDPVGQGYLAHQLLGDSMQHPGAGRPGQQMLGQISATSHINIYQGPESCLPGAHGMGSQPSSLAVVRGYQPCASFGGSRRQAMPRDSLALQSGQLSDTSQTCRVNGIKMEMKGQPHPLCSNLQNYSGQFYDQTVGFSQQDTKAGSFSISDASCLLQGTSAKNSELLSPGANQVTSTVDSLDSHDLEGVQIDFDAIIDDGDHSSLMSGALSPSIIQNLSHSSSRLTTPRASLPFPALSMSTTNMAIGDMSSLLTSLAEESKFLAVMQ
